From US11180762B2, “Methods and compositions for the treatment of cancer” (CHILDREN'S MEDICAL CENTER CORPORATION, priority 2014, dated 2021) come the findings set out here.

The nature of data set [1]: Serum stability, serum species not stated. It counts as in vitro ADME. As to conditions: 2'-fluoropyrimidine AsiC.
The test system of data set [2] is eGFP expression in BPLER and BPE cells. Kind of data set: eGFP knockdown in GFP-expressing BPLER and BPE cells. It is filed as cell-based, human. The conditions noted are these: AsiC 4 μM without lipid; siRNA 100 nM with Dharmafect; 72 hours. As for the experimental part: FIG. 21A depicts the design of EpCAM-AsiC, containing an EpCAM aptamer and a PLK1 siRNA (sense strand disclosed as SEQ ID NO: 1 and antisense strand disclosed as SEQ ID NO: 2). […] EpCAM-AsiC targeting GFP was Alexa647 or Cy3 labeled at the 3′ end of the antisense siRNA strand and incubated with BPLER and BPE cells. Uptake was assessed 24 hours later by flow cytometry (FIG. 21C). Data are representative of 3 independent experiments. Cy3 and Alexa647-labeled EpCAM-AsiC was taken up by MB468 and BPLER (EpCAM+ cells) respectively and not by BPE (EpCAM−). MFI of each peak is shown (mock, gray). FIG. 21D depicts graphs of experiments in which, to test for gene silencing, BPLER and BPE were treated with EpCAM-AsiC targeting GFP (4 μM) and compared to Transfection controls using Dharmafect and GFP-siRNA (100 nM). Knockdown was assessed by flow cytometry 72 hours after incubation. Controls were mock and Dhrmafect only treatment (lipid). (n=4).
For uptake and silencing treatment, cells were plated at low density (10,000 cells/well in 96-well plates) and treated immediately. All AsiC and siRNA treatments were performed in either OptiMEM or WIT medium. Cell viability was assessed by CellTiter-Glo (Promega) or by Trypan-Blue staining in 96-well plates.
Cells were transfected with Dharmafect I per the manufacturer's protocol. See FIG. 9 for all siRNA sequences.

In a further data set the test system is EpCAM+ cell lines. Briefly: In vitro gene knockdown by AsiC designs. It is filed as cell-based, human.
Data set [3] can be described thus: Stability in human serum (denaturing PAGE, densitometry). It is filed as in vitro ADME. As to conditions: 2'-fluoropyrimidine AsiC. As for the experimental part: Aliquots were removed at regular intervals and resuspended in gel loading buffer and stored at −80° C. before electrophoresis on denaturing PAGE gels. The average intensity (+S.E.M.) of bands from 2 independent experiments quantified by densitometry after staining is shown.
EpCAM-AsiC targeting GFP synthesized using 2′-fluoro-pyrimidines, chemically-stabilized 21-mer cholesterol-conjugated GFP-siRNAs (chol-siRNA), and unmodified 21-mer GFP-siRNA, each in 100 ul PBS, which were added to 100 μl of human or mouse serum. At regular intervals, 20 μL was removed, and resuspended in gel loading buffer and frozen at −80° C. before being electrophoresed on a denaturing PAGE gel. FIG. 30A depicts representative PAGE gels and FIG. 30B depicts graphs of the average intensity (+S.E.M.) of bands from two independent experiments analyzed by densitometry. Both the stabilized cholesterol-conjugated siRNA and the EpCAM-AsiC are stable over the 36 h of the experiment.

Data set [4] has as its system human breast tumor and normal breast tissue biopsies. Kind of data set: Uptake in human breast tumor and normal tissue biopsy explants. It counts as cell-based. As to conditions: 2 μM; 24 h; flow cytometry of single cell suspensions. The source says: It was next examined whether EpCAM-AsiCs concentrate in human breast tumors relative to normal breast samples within intact tissues. Paired normal tissue and breast tumor biopsies from 3 breast cancer patients were cut into cubes with −3 mm edges and placed in Petri dishes. The tumor sample cells were all EpCAM^bright and the normal tissue cells were EpCAM^dim (FIG. 3A). Fluorescently labeled Alexa647-siRNAs (not expected to be taken up by either normal tissue or tumor), Alexa647-cholesterol-conjugated siRNAs (chol-siRNAs, expected to be taken up by both), or Cy3-EpCAM-AsiCs were added to the culture medium and the tissues were incubated for 24 hr before harvest. The Cy3 signal of the AsiC, which could be visualized by the naked eye, concentrated only in the tumor specimens and was not detected in normal tissue (FIG. 3B). To quantify RNA uptake, flow cytometry analysis was performed on washed single cell suspensions of the tissue specimens (representative tumor-normal tissue pair (FIG. 3C), mean±SD of triplicate biospies from 3 EpCAM^bright paired breast tumor-normal tissue samples (FIG. 3D)). […] Thus, within intact tissue, EpCAM-AsiCs are selectively delivered to EpCAM^bright tumors relative to normal tissue. […]
(Flow cytometry measures light scatter and fluorescence of single cells or particles in a stream.)

The subject of the next data set is MB468-luc cells. Kind of data set: Tumor initiation by ex vivo treated EpCAM+ cells in nude mice. The conditions noted are these: cells treated ex vivo 24 h/overnight, then implanted, imaged 20 days. As for the experimental part:
For tumor initiation studies 8-week old female Nu/J mice (Stock #002019, Jackson Laboratories) were injected subcutaneously with MB468-luc (5×10^6) cells pretreated for 24 h with EpCAM-AsiC-GFP, EpCAM-AsiC-PLK1 or untreated. Cells were trypsinized with Tryple Express (Invitrogen), resuspended in WIT media and injected subcutaneously in the flank. Following intraperitoneal injection of 150 mg/kg D-luciferin (Caliper Life Sciences) luminescent images of the whole body were taken every 5 days for a total of 20 days using the IVIS Spectra system (Caliper Life Sciences).

For a further data set, the system named is MCF10CA1a (CA1a) tumor. Kind of data set: MCF10CA1a tumor growth, AsiC injected sc near the tumor. It counts as in vivo, mice. The conditions noted are these: luminescent photon flux, N=4. As for the experimental part: The top panel depicts the experimental scheme. In this experiment the AsiCs were injected sc in the flank near the tumor, but not into the tumor. The bottom panel depicts a graph of Log2 total luminescent photon flux of the tumors (N=4); *, P<0.05 by Student's t-test.

Entries after “also recorded” stand apart in the source; their conditions may differ.

B1: EpCAM-AsiC: EpCAM aptamer-siRNA chimera, siRNA cargo not specified at the place; 2'-fluoropyrimidines, 3'-dTdT (nucleic acid)
sense: GCGACUGGUUACCCGGUCGUUUUGAAGAAGAUCACCCUCCUUATT
antisense: UAAGGAGGGUGAUCUUCUUCATT
modifications: DNA at T, 2'-fluoro at CU, RNA at AG, backbone not given here; further chemistry not fully specified
notes: EpCAM aptamer-siRNA chimera, siRNA cargo not specified at the place; 2'-fluoropyrimidines, 3'-dTdT
Consider B1, for which the “serum T1/2” value in data set [1] was > 72 h. The “eGFP knockdown, BPLER vs BPE” value in data set [2] is “uniform and selective for EpCAM+ cells”. Also, in the data set on EpCAM+ cell lines, the “gene knockdown, EpCAM+ vs EpCAM− cells” value was “selectively knocked down expression in EpCAM+ breast and colon cancer cell lines but not in normal epithelial cells or mesenchymal tumor cells”. Further, the “T1/2 in human serum” value in data set [3] is > 36 h. For the same molecule, the “uptake by breast tumor vs normal tissue” value in data set [4] is on record as “concentrated only in the tumors”.

B2: PLK1 EpCAM-AsiC: EpCAM aptamer linked by U-U-U to PLK1 siRNA sense strand (SEQ ID NO: 1), annealed to antisense strand (SEQ ID NO: 2) (nucleic acid)
sense: B1 sense
antisense: UAAGGAGGGUGAUCUUCUUCATT
modifications: DNA at T, 2'-fluoro at CU, RNA at AG, backbone not given here; EpCAM aptamer fused to sense strand
As for B2, the “tumor initiation, EpCAM+ cells” value with MB468-luc cells (listed as EpCAM-AsiC targeting PLK1) is “did not show any sign of a tumor after 20 days; also recorded: no tumor initiation”; in the data set with MB468-luc cells (listed as PLK1 EpCAM-AsiCs), “completely blocked tumor formation; also recorded: eliminated tumor initiation by basal-like TNBCs; also recorded: eliminated their ability to form tumors in nude mice”. Further, in the data set on MCF10CA1a (CA1a) tumor, the MCF10CA1a tumor growth result is “suppresses MCF10CA1a (CA1a) tumor growth”.
